Source: patent publication US9823254B2, “Reversible chemoenzymatic labeling of native and fusion carrier protein motifs” (The Regents of the University of California, priority 2012, dated 2017)
Values joined by “and” are separate entries in the source; they are usually repeats but may differ in a detail not shown here. Identical values can stand only once.

Legend:
S. oneidensis AcpP = assay: AcpH qualitative CP activity, holo-SoAcpP, Urea-PAGE; format: biochemical; conditions: FAS, Urea-PAGE gel-shift, shorter timescale
Procedure: Unless otherwise noted, all coumarin-PPant labeling proceeded as follows: apo-carrier protein or peptide at 50-200 μM were labeled in 50 mM Na-HEPES pH 7.5, 10 mM MgCl2, 8 mM ATP, 0.1 μM MBP-CoaA/D/E, 0.1 μM native Sfp, and 1.1 equivalents of coumarin-pantetheine at 37° C. overnight. Crypto-protein samples were repurified using standard IMAC techniques in pH 8 lysis buffer with Ni-NTA resin, and spin-concentrated/buffer exchanged to remove imidazole and concentrate with 0.5 mL 3 kDa MWCO cellulose filters. Crypto-peptide samples were purified with HPLC, lyophilized, and redissolved in 50 mM TrisCl pH 8.0 prior to analysis.
Following AcpH treatment, an equal volume of 2×SDS-PAGE loading dye was added to crypto-carrier proteins samples and heated 5 min at 90° C., and run on 12% or 15% SDS-PAGE. Gels were fixed in 50/40/10% water/methanol/acetic acid for 30 minutes, and washed with water three times before UV imaging. Holo-carrier protein reactions were analyzed with Urea-PAGE as previously described.^6 All protein gels were Coomassie stained for evaluating total protein. Crypto-peptides were evaluated on Urea-PAGE, and were imaged immediately after running with no gel fixing.

P. agglomerans AdmI = assay: AcpH qualitative CP activity, gel-based, crypto-CP; format: biochemical; conditions: PKS; crypto-CP (coumarin-PPant), overnight, 37° C., 1 μM AcpH
Procedure: (§1) Unless otherwise noted, all coumarin-PPant labeling proceeded as follows: apo-carrier protein or peptide at 50-200 μM were labeled in 50 mM Na-HEPES pH 7.5, 10 mM MgCl2, 8 mM ATP, 0.1 μM MBP-CoaA/D/E, 0.1 μM native Sfp, and 1.1 equivalents of coumarin-pantetheine at 37° C. overnight. Crypto-protein samples were repurified using standard IMAC techniques in pH 8 lysis buffer with Ni-NTA resin, and spin-concentrated/buffer exchanged to remove imidazole and concentrate with 0.5 mL 3 kDa MWCO cellulose filters.
(§2) Following AcpH treatment, an equal volume of 2×SDS-PAGE loading dye was added to crypto-carrier proteins samples and heated 5 min at 90° C., and run on 12% or 15% SDS-PAGE. Gels were fixed in 50/40/10% water/methanol/acetic acid for 30 minutes, and washed with water three times before UV imaging. Holo-carrier protein reactions were analyzed with Urea-PAGE as previously described.^6 All protein gels were Coomassie stained for evaluating total protein.

P. agglomerans AdmA = assay: AcpH qualitative CP activity, gel-based, crypto-CP; format: biochemical; conditions: NRPS; crypto-CP (coumarin-PPant), overnight, 37° C., 1 μM AcpH
Procedure: as §1, §2

A. orientalis CepK = assay: AcpH qualitative CP activity, gel-based, crypto-CP; format: biochemical; conditions: NRPS; crypto-CP (coumarin-PPant), overnight, 37° C., 1 μM AcpH
P. fluorescens PltL = assay: AcpH qualitative CP activity, gel-based, crypto-CP; format: biochemical
Procedure: as §1, §2

[1] = system: ACP fusion proteins (MBP, GFP, Lux-ACP); assay: AcpH label removal from rhodamine-labeled ACP fusion proteins; format: biochemical; conditions: N-terminal MBP, C-terminal GFP, N-terminal luciferase (Lux-ACP) fusions
Procedure: Purified apo-MBP-PaACP at 200 μM was labeled with 1 mM rhodamine-CoA and 13 μM native Sfp in a reaction volume of 20 μL for 3 hours at 37° C. Purified apo-GFP-ACP at 150 μM was labeled with 1 mM rhodamine-CoA and 7 μM native Sfp in a reaction volume of 35 μL for 3 hours at 37° C. Purified apo-Lux-ACP at 12 μM was labeled with 50 μM rhodamine-CoA and 3 μM native Sfp for 1 hour at 37° C. Fusion ACPs were then re-purified from excess rhodamine-CoA and native Sfp using Ni-NTA resin, and buffer exchanged and concentrated using 10 kDa MWCO 0.5 mL Amicon spin filters (Millipore). Label removal of MBP-ACP and GFP-ACP proceeded with 4 μL of the concentrated crypto-fusion ACPs with 10 μM AcpH in 10 μL of AcpH reaction buffer for 3 hours at 37° C. 6 μM crypto-Lux-ACP was reacted with 5 μM AcpH for 3 hours at 37° C. AcpH reaction samples were run immediately afterwards on Urea-PAGE (MBP-ACP and GFP-ACP) or SDS-PAGE (Lux-ACP) with no further purification.

M. tuberculosis AcpM = M. tuberculosis AcpM (Mycobacterium tuberculosis, UniProt P9WQF3); conditions: FAS; crypto-CP (coumarin-PPant), overnight, 37° C., 1 μM AcpH
holo-ACP (E. coli) = holo-ACP (E. coli) (Escherichia coli, UniProt P0A6A8); conditions: 37° C., HPLC detection, [AcpH] 1 (CyAcpH 0.005) μm
Procedure: Holo-E. coli AcpP was prepared as a serial dilution in 50 mM TrisCl, 250 mM NaCl, 30 mM MgCl2, and 2 mM MnCl2. […] CyAcpH was prepared at 10 nM in the same AcpH buffer. […] Reactions were transferred to prewarmed shaker at 37° C. and were quenched with 100 mM EDTA after 10 minutes. Samples were centrifuged and evaluated at 210 nm with HPLC using an acetonitrile gradient to determine apo-AcpP product formation. Michaelis-Menten kinetics were calculated using GraphPad Prism (GraphPad Software, La Jolla, Calif.).
E. coli holo-ACP was diluted into 50 mM TrisCl pH 8.0, 250 mM NaCl, 10% glycerol, 30 mM MgCl2 and 2 mM MnCl2 buffer to a concentration of 800 μM. […] AcpH was diluted from MOPS lysis buffer into 50 mM TrisCl pH 8.0, 250 mM NaCl, 10% glycerol and added to an equal volume of the holo-ACP serial dilution to initiate the reaction. Reaction tubes were transferred to a pre-warmed rack at 37° C. and shaken for the duration of the experiment. […] All samples were frozen at -80° C. until evaluated by HPLC.
Kinetics samples were mixed briefly with finger flicking, and centrifuged at 13000 rpm for 10 minutes at room temperature prior to transferring contents into HPLC vials. 20 μL of each reaction time point was injected on an Agilent 1100 series HPLC with column (Burdick & Jackson OD5 #9575, 25 cm×4.6 mm ID) using an acetonitrile/water gradient. Both water and acetonitrile contained 0.05% TFA. Method gradient for each injection: 0-5 min with 10% acetonitrile, 5-30 min with 10-100% acetonitrile, 30-35 min with 100% acetonitrile, 35-37 min with 100-10% acetonitrile, 37-40 min with 10% acetonitrile. HPLC-grade solvents (J. T. Baker, Phillipsburg, N.J.) were used exclusively. Apo- & holo-ACP protein standards were used to validate the retention times identified using 210 nm UV light at approximately 21 and 19 minutes, respectively. Peak integration was performed for all samples, and substrate turnover was calculated from the ratio of apo- to holo-ACP present in the HPLC trace and the known concentration of total ACP in reaction samples. Calculated rates for AcpH versus substrate concentration were obtained through Excel data analysis and graphed in Prism GraphPad using the “Michaelis-Menten” function for enzyme kinetics, with a zero data point added for substrate concentration of 0 μM*min-1 and 0 μM substrate for AcpH graphs.

B1: PaAcpH: acyl carrier protein hydrolase (AcpH) from P. aeruginosa PAO1, NP13 253043.1 (protein)
chain: MNYLAHLHLGGPQPAQLLGSLYGDFVKGRLQGQWPDEIERAIQLHRRIDAFTDSHPLVHAAKRRFPLERRRFAGVLLDVFFDHCLARDWNDYADEPLPQFVERVYGTLRTASPLPERLARIAPRMAAQDWLGSYREFAVLREVLGGMSRRLSRPHLLDGSWEELAQRYDDLSADFRAFYPQLQAFALSQR
- AcpH qualitative CP activity (S. oneidensis AcpP): YES^†
- AcpH qualitative CP activity (P. agglomerans AdmI): no
- AcpH qualitative CP activity (P. agglomerans AdmA): no
- AcpH qualitative CP activity (A. orientalis CepK): no
- AcpH activity with PltL (P. fluorescens PltL; NRPS-type PCP, crypto-PltL): partial activity
- AcpH qualitative CP activity (P. fluorescens PltL; NRPS, crypto-CP (coumarin-PPant), overnight, 37° C., 1 μM AcpH): YES
- removal of rhodamine-PPT from ACP fusion proteins [1]: removed rhodamine-PPT
- AcpH qualitative CP activity (M. tuberculosis AcpM): YES
- Km (holo-ACP (E. coli)): 12 ± 2 µM
- Vmax (holo-ACP (E. coli)): 0.59 ± 0.02 min⁻¹
- kcat (holo-ACP (E. coli)): 0.01 s⁻¹ and 0.00983 ± 0.00033 s⁻¹
